In publication doi:10.1101/2025.07.25.666786:

Key:
[1] = target: CrAPE1 C128S mutant, recombinant soluble region of the DUF2854 of APE1 from Chlamydomonas reinhardtii (Chlamydomonas reinhardtii); assay: SEC-MALS
[2] = target: CrAPE1 C128S mutant, recombinant soluble region of the DUF2854 of APE1 from Chlamydomonas reinhardtii (Chlamydomonas reinhardtii); assay: MST
[3] = target: Plastid Copper Chaperone 1 (PCC1) from Chlamydomonas reinhardtii, recombinant, produced in the presence of Cu (Chlamydomonas reinhardtii)

Row | Substance | stoichiometry N [1] | Kd [2] [nM] | stoichiometry N [3]
1 | CrAPE1 C128S mutant, recombinant soluble region of the DUF2854 of APE1 from Chlamydomonas reinhardtii (domain or fragment) | 2 |  | 
2 | Plastid Copper Chaperone 1 (PCC1) from Chlamydomonas reinhardtii, recombinant, produced in the presence of Cu (natural protein) |  | 38.6 | 2
